Test system: human peripheral monocyte differentiated M1 macrophages
Experiment: In vitro sMIC induction of PDL1 expression on monocyte-derived macrophages (flow cytometry)
Assay type: cell-based
Conditions: recombinant sMIC added at day 7, cultured 2 days; FIG. 4E
Protocol: In vitro macrophage generation from peripheral monocytes: Human peripheral blood monocyte differentiation into macrophages. PBMCs from healthy donors were seeded at the density of 2×10^6 cells/well in a 24 well plate with pre-warmed monocyte attachment media (MAM, Promocell, Cat. No. c-28051) and incubate at 37° C. After 1.5 hr incubation, non-adherent cells were removed. Adherent cells were washed three times with pre-warmed MAM before cultured in macrophage differentiation media respectively, the M1 macrophage generating media (Promocell c-28055) or the M2 macrophage generating media (Promocell c-28056). After 5 days of culture, 50% of the media were replaced with fresh media. At day 7, recombinant sMIC (rsMICB, his-tagged, SinoBiologicals Cat. No 10759-H08H) or control vehicle PBS were added to the culture at indicated concentration. The culture was continued for 2 days before being harvested for analyses.

B1: sMIC: recombinant sMIC (rsMICB, his-tagged, SinoBiologicals Cat. No 10759-H08H) (protein, UniProt Q29980 23-383, looked up)
MHC class I …: AEPHSLRYNLMVLSQDGSVQSGFLAEGHLDGQPFLRYDRQKRRAKPQGQWAENVLGAKTWDTETEDLTENGQDLRRTLTHIKDQKGGLHSLQEIRVCEIHEDSSTRGSRHFYYDGELFLSQNLETQESTVPQSSRAQTLAMNVTNFWKEDAMKTKTHYRAMQADCLQKLQRYLKSGVAIRRTVPPMVNVTCSEVSEGNITVTCRASSFYPRNITLTWRQDGVSLSHNTQQWGDVLPDGNGTYQTWVATRIRQGEEQRFTCYMEHSGNHGTHPVPSGKALVLQSQRTDFPYVSAAMPCFVIIIILCVPCCKKKTSAAEGPELVSLQVLDQHPVGTGDHRDAAQLGFQPLMSATGSTGSTEGT
modifications: His-tag
With B1 the “PDL1 expression on M1 macrophages” value was “can induce PDL1 expression”.
